Measurements published in patent US20170275344A1, “POLYPEPTIDES AND USES THEREOF AS A DRUG FOR TREATMENT OF AUTOIMMUNE DISORDERS” (Compugen Ltd., priority 2014, published 2017).

System: Female C57BL/6 recipient mice (CD45.2+)
Assay: HY bone marrow transplantation model, male CD45.1 BM into female CD45.2 mice (FACS of blood and spleen)
Assay type: in vivo, mouse
Description: A transplantation model utilizing male bone marrow (BM) cells from C57BL/6 mice transplanted into female mice of the same starin was used to study whether C1ORF32 ECD-Fc induces immune tolerance. In this model BM cells of the male mouse are rejected by the female recipients due to mismatch in the minor histocompatibility antigen encoded by the Y chromosome (Hya). To allow identification of the male cells in the female mice blood, male mice expressing CD45.1 isotype were selected while the female mice carry CD45.2 isotype. This model provides a tool for testing the effect of potential drugs on induction of tolerance towards the grafted cells.
In this model, C1ORF32 ECD-Fc (SEQ ID NO:42) treatment started one week before bone marrow transplantation and continued for five weeks. Female recipient mice were followed for percentage of CD45.1+ and CD45.2+ cells present within the blood.
Female C57BL/6 recipient mice (CD45.2+) were sub-lethally irradiated with 200 rads/cGy 24 hours before transplantation of either female C57Bl/6 (CD45.1+) or male C57Bl/6 (CD45.1+) 5×10^6 bone marrow cells. Recipient mice were allocated into treatment groups as detailed below (n=6 per group). Treatments were given at 300 ug/dose i.p, 3×/wk starting one week prior to transplantation and continued for 4 weeks following transplantation, giving a total of 15 treatments during this 5 weeks period.
1. Female CD45.1 into female CD45.2 2. Male CD45.1 into female CD45.2+anti-CD40L (300 ug/dose) (Clone MR-1; BioXCell, Cat#BE0017-1) 3. Male CD45.1 into female CD45.2+C1ORF ECD-Fc (SEQ ID NO:42) (300 ug/dose)2 4. Male CD45.1 into female CD45.2+Control Ig (mouse IgG2a) (300 ug/dose)
Beginning at 2 weeks following bone marrow transplantation, blood samples from the tail were collected from each mouse once a week for 4 weeks. Approximately 2-3 drops of blood were collected per mouse into 200 ul of PBS+EDTA (50 mM), samples were spun down, and RBCs lysed with ammonium chloride. The cells were washed 3× with PBS, stained with the viability dye Aqua Dead Cell Stain (Invitrogen; Cat#L34957), blocked with Fc Receptor block (anti-mouse CD16/32; eBioscience; Cat#14-0161-86), and stained with anti-mouse CD45.1 APC-Cy7 (eBiosciences; Cat#47-0453-80) and anti-mouse CD45.2 FITC (eBioscience; Cat#11-0454-82). The analysis for chimerism was determined by flow cytometric analysis (on total live cells) for the percentage of CD45.1+ versus CD45.2+ cells present in the blood of female recipient mice.
During weeks 6, 7, and 8 the blood samples were also stained to determine the percentage of CD4+ Teff cells and CD4+ Treg cells present within the blood using the cellular markers CD44, CD25, and FoxP3. Details of the Abs used in the flow panels for weeks 6, 7, and 8 are listed below.
These same populations of cells were analyzed at week 8 within the spleen. In addition, the proliferative and secreted cytokine responses of total splenocytes in ex vivo recall cultures were tested in the presence of medium alone, anti-CD3 (1 ug/ml), the HY antigen DBY peptide (NAGFNSNRANSSRSS; Genemed Synthesis; San Antonio, Tex.) (10 ug/ml), irradiated male splenocytes (1:1 ratio), or irradiated female splenocytes (1:1 ratio).

[1] = week 6 post transplant, vs Control Ig

B1: C1ORF32 ECD-Fc (SEQ ID NO:42): fusion protein of human C1ORF32 ECD fused to mouse immunoglobulin Fc (human-mouse fusion protein) (protein)
chain: LQVTVPDKKKVAMLFQPTVLRCHFSTSSHQPAVVQWKFKSYCQDRMGESLGMSSTRAQSLSKRNLEWDPYLDCLDSRRTVRVVASKQGSTVTLGDFYRGREITIVHDADLQIGKLMWGDSGLYYCIITTPDDLEGKNEDSVELLVLGRTGLLADLLPSFAVEIMGSENLYFQGSGEPRGPTIKPCPPCKCPAPNLLGGPSVFIFPPKIKDVLMISLSPIVTCVVVDVSEDDPDVQISWFVNNVEVHTAQTQTHREDYNSTLRVVSALPIQHQDWMSGKEFKCKVNNKDLPAPIERTISKPKGSVRAPQVYVLPPPEEEMTKKQVTLTCMVTDFMPEDIYVEWTNNGKTELNYKNTEPVLDSDGSYFMYSKLRVEKKNWVERNSYSCSVVHEGLHNHHTTKSFSRTPGK
modifications: Fusion protein human C1ORF32-ECD fused to mouse IgG2a Fc
With B1 as the molecule, how does the graft rejection (5 week dosing schedule beginning one week before transplant) read?
Its graft rejection is “effective in preventing graft rejection”.

And the “male donor CD45.1+ cells present in the blood of recipient females” value (week 4 post transplant, maintained until week 8, 300 ug/dose i.p. 3x/wk for 5 wks)?
The value was “highly significant number of male CD45.1+ cells were present”.

What about the “effector/memory CD4+ T cells (CD45.1+/CD4+/CD44hi) within the blood” value [1] of the same molecule?
Its value is “decrease”.

And the “resting CD4+ T cells (CD45.1+/CD4+/CD44lo) in blood” value [1]?
The value was “significantly higher percentage”.

What about the “activated donor CD4+ T cells (CD45.1+/CD4+/CD25+/FoxP3-) in blood” value (week 7 post transplant, vs Control Ig) of the same molecule?
Its value is “significantly lower percentage”.

And the “number of donor-derived (CD45.1+) CD4+/CD25+/FoxP3+ Treg cells and Treg subpopulations in spleen” value (week 8)?
Its value is “striking increase”.

And the “donor (CD45.1+) Tregs (FoxP3+CD25+) in blood” value (week 8, vs Control Ig)?
The value was “significant increase”.

What about the “donor (CD45.1+) activated CD4+ T cells (FoxP3-CD25+) in blood” value (week 8, vs Control Ig) of the same molecule?
The value was “decrease”.

And the “donor (CD45.1+) effector/memory CD4+ T cells (CD44hi) in blood” value (week 8, vs Control Ig)?
The value was “significant increase”.

What about the “number of endogenous-derived (CD45.2+) Tregs and Treg subtypes in spleen” value (week 8, vs Ig control group) of the same molecule?
Its value is “reduced”.

What about the “percentage and number of CD45.1+/CD4+ T cells within the spleen” value (week 8 post transplant) of the same molecule?
Its value is “increased”.
